Earlier results on two sequences are cited in US10543287.

The subject of data set [1] is rag2 ZFN pair (FokI) (synthetic construct). The data set is described as follows: cell_activity. As to conditions: CITED ref 58 somatic mutation rate in zebrafish embryos, mutant lines obtained here (Table 1), half-sites only highlighted in figure.
Data set [2] concerns jak3 ZFN pair (FokI) (synthetic construct). The experiment in a line: cell_activity. The following applies: CITED ref 58 somatic mutation rate in zebrafish embryos, mutant lines obtained here (Table 1), half-sites only highlighted in figure.

On to “CCATGATCTTCTGCTCCAGGGGTGAAGGTGGACACTG (double strand) [rag2 ZFN target]”, for which the activity in data set [1] is 7.7%.

Consider “TATTTCTGCGCAGAAGTGGCCCCACCAAGCCTGCTGGAGGACATACAGAATTA (double strand) [jak3 ZFN target]”, for which, in data set [2], the activity was 1.4%.
